Key:
[1] = target: SNAP-25134-197 peptide (human); test: SPR (BIAcore 3000), peptide amine-coupled to CM5, antibody as analyte, 1:1 fit
[2] = target: SNAP-25134-206 peptide (human); test: as above
[3] = target: syntaxin 2 (SiMa cell lysate) (human (SiMa cells)) (UniProt P32856); test: ECL sandwich ELISA, SiMa lysate; capture MAB2936, detection AB5596; result of the pair
[4] = target: syntaxin 2 (SiMa cell lysate) (human (SiMa cells)) (UniProt P32856); test: ECL sandwich ELISA, SiMa lysate; capture MAB2936, detection S5687; result of the pair
[5] = target: GAPDH (SiMa cell lysate) (human (SiMa cells)) (UniProt P04406); test: ECL sandwich ELISA, SiMa lysate; capture MAB374, detection G9545; result of the pair
[6] = target: GAPDH (SiMa cell lysate) (human (SiMa cells)) (UniProt P04406); test: ECL sandwich ELISA, SiMa lysate; capture MAB374, detection G8795; result of the pair
[7] = target: GAPDH (SiMa cell lysate) (human (SiMa cells)) (UniProt P04406); test: ECL sandwich ELISA, SiMa lysate; capture MAB374, detection 2275-PC-1; result of the pair
[8] = target: syntaxin 1 (SiMa cell lysate) (human (SiMa cells)) (UniProt Q16623); test: ECL sandwich ELISA, SiMa lysate; capture S0664, detection S1172-2; result of the pair
[9] = target: syntaxin 1 (SiMa cell lysate) (human (SiMa cells)) (UniProt Q16623); test: ECL sandwich ELISA, SiMa lysate; capture S0664, detection S1172-1; result of the pair
[10] = target: GAPDH (SiMa cell lysate) (human (SiMa cells)) (UniProt P04406); test: ECL sandwich ELISA, SiMa lysate; capture G8795, detection 2275-PC-1; result of the pair

Substance	Kd [1]	koff [1]	kon [1]	Kd [2]	koff [2]	further results
MC-6050 α-SNAP-25 mouse monoclonal antibody (Research & Diagnostic Antibodies)	0.497 nM	0.000882 s⁻¹	1.78e+06 M⁻¹ s⁻¹	19800 nM	0.00607 s⁻¹	kon [2]: 306 M⁻¹ s⁻¹
MC-6053 α-SNAP-25 mouse monoclonal antibody (Research & Diagnostic Antibodies)	0.508 nM	0.00118 s⁻¹	2.32e+06 M⁻¹ s⁻¹	240 nM	2.56e-05 s⁻¹	
α-human syntaxin 2 mouse monoclonal antibody MAB2936 (R & D Systems)						Signal/Noise Ratio (lysate/buffer) [3]: 1.2; Signal/Noise Ratio (lysate/buffer) [4]: 1.07
α-GAPDH mouse monoclonal antibody MAB374 (Chemicon)						Signal/Noise Ratio (lysate/buffer) [5]: > 100; Signal/Noise Ratio (lysate/buffer) [6]: 0.89; Signal/Noise Ratio (lysate/buffer) [7]: 20
α-Syntaxin 1A-HPC mouse monoclonal antibody S0664 (Sigma)						Signal/Noise Ratio (lysate/buffer) [8]: 1.21; Signal/Noise Ratio (lysate/buffer) [9]: 4.23
α-GAPDH mouse monoclonal antibody G8795 (Sigma)						Signal/Noise Ratio (lysate/buffer) [10]: 2.74

— patent US20100203559A1
